From paper PMC5133369 (Experimental & Molecular Medicine, 2016)

Molecular target: RNA polymerase II (largest subunit, with its C-terminal domain) (Homo sapiens, UniProt P24928)
Experiment: far-Western, overlay or dot blot

Row | binding result | Binder
1 | binds | pCTD-2ndS2 scFv-Fc fusion protein (scFv, V domains shown) VH: EVQLVESGGGLVQPGGSLRLSCAASGFNIKDTYIHWVRQAPGKGLEWVARIYPTNGYTRYADSVKGRFTISADTSKNTAYLQMNSLRAEDTAVYYCSRDRAQWWEYKNAMDVWGQGTLVTVSS VL: not shown
2 | binds | pCTD-1stS5 scFv-Fc fusion protein (scFv, V domains shown) VH: EVQLVESGGGLVQPGGSLRLSCAASGFNIKDTYIHWVRQAPGKGLEWVARIYPTNGYTRYADSVKGRFTISADTSKNTAYLQMNSLRAEDTAVYYCSRGPWPGSHHKYAMDVWGQGTLVTVSS VL: not shown
3 | binds | pCTD-S7 scFv-Fc fusion protein (scFv, V domains shown) VH: EVQLVESGGGLVQPGGSLRLSCAASGFNIKDTYIHWVRQAPGKGLEWVARIYPTNGYTRYADSVKGRFTISADTSKNTAYLQMNSLRAEDTAVYYCSRGISYPWQRGYYYAMDVWGQGTLVTVSS VL: not shown

More lines, now with the values behind:

Row | Binder | binding result
4 | PanCTD scFv-Fc fusion protein (scFv, V domains shown) VH: EVQLVESGGGLVQPGGSLRLSCAASGFNIKDTYIHWVRQAPGKGLEWVARIYPTNGYTRYADSVKGRFTISADTSKNTAYLQMNSLRAEDTAVYYCSRYGRRGVFDYWGQGTLVTVSS VL: not shown | binds
5 | pCTD-S7S5 scFv-Fc fusion protein (scFv, V domains shown) VH: EVQLVESGGGLVQPGGSLRLSCAASGFNIKDTYIHWVRQAPGKGLEWVARIYPTNGYTRYADSVKGRFTISADTSKNTAYLQMNSLRAEDTAVYYCSRDPWSRWAKVFDYWGQGTLVTVSS VL: not shown | binds
6 | pCTD-1stS2 scFv-Fc fusion protein (scFv, V domains shown) VH: EVQLVESGGGLVQPGGSLRLSCAASGFNIKDTYIHWVRQAPGKGLEWVARIYPTNGYTRYADSVKGRFTISADTSKNTAYLQMNSLRAEDTAVYYCSRGAFWFSRSHFDYWGQGTLVTVSS VL: not shown | binds
